Measured values published in patent publication US20180155411A1 (Stanford University, published 2018).

Key:
[1] = molecular target: T1, CDC-9 triple layered particles (TLPs), G1P[8] (human rotavirus); assay: ELISA, CDC-9 TLPs
[2] = molecular target: VP7 of rotavirus strain 69M (G8P[10]) (human rotavirus); assay: cell-based or functional assay
[3] = molecular target: VP7 of rotavirus strain #321 (G10P[11]) (human rotavirus); assay: cell-based or functional assay
[4] = molecular target: T2, VP7 of rotavirus strain Wa (G1P[8]) (human rotavirus, UniProt P03532 51-326); assay: cell-based or functional assay
T2 sequence (P03532 51-326 limits assumed): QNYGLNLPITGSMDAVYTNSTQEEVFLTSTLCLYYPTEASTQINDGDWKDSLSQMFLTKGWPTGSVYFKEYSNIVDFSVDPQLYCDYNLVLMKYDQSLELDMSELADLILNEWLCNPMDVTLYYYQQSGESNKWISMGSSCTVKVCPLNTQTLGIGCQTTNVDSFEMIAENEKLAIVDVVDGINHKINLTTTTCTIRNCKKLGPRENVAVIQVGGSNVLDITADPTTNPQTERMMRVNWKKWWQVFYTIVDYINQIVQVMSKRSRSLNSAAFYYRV

[5] = molecular target: T2, VP7 of rotavirus strain Wa (G1P[8]); assay: immunostaining, RV-infected MA104 cells
[6] = molecular target: T3, VP4 of rotavirus strain Wa (G1P[8]) (human rotavirus, UniProt P11193 1-775); assay: cell-based or functional assay
T3 sequence (P11193 whole entry): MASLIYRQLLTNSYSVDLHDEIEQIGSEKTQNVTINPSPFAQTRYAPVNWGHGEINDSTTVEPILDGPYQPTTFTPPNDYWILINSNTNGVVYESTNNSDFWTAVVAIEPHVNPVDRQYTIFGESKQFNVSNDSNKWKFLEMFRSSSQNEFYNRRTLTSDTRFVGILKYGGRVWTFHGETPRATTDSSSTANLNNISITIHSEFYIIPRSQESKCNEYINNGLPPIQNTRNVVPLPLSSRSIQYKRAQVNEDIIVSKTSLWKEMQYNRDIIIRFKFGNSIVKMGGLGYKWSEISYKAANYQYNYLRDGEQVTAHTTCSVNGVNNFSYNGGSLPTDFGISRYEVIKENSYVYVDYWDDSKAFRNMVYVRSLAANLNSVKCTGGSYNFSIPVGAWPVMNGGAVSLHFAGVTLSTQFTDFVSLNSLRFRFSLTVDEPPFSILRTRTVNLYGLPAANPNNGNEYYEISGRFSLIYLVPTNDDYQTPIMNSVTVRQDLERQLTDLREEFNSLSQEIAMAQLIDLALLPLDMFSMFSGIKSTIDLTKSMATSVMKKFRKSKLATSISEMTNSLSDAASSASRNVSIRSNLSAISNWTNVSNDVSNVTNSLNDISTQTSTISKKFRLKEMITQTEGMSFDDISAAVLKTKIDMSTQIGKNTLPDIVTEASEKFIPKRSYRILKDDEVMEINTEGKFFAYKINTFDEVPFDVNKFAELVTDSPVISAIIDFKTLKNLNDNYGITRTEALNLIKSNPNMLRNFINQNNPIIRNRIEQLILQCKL

[7] = molecular target: T3, VP4 of rotavirus strain Wa (G1P[8]); assay: immunostaining, RV-infected MA104 cells
[8] = molecular target: VP4 of rotavirus strain 69M (G8P[10]) (human rotavirus); assay: cell-based or functional assay
[9] = molecular target: VP4 of rotavirus strain #321 (G10P[11]) (human rotavirus); assay: cell-based or functional assay
[10] = molecular target: VP4 of rotavirus strain NCDV (G6P[1]) (bovine rotavirus); assay: cell-based or functional assay
[11] = molecular target: VP4 of rotavirus strain OSU (G5P[7]) (porcine rotavirus); assay: cell-based or functional assay
[12] = molecular target: T4, VP4 of rotavirus strain DS1 (G2P[4]) (human rotavirus, UniProt Q14197); assay: immunostaining, RV-infected MA104 cells
T4 construct: whole, on cells

[13] = molecular target: T5, VP4 of rotavirus strain ST3 (G4P[6]) (human rotavirus); assay: immunostaining, RV-infected MA104 cells
T5 construct: whole, on cells
T5 sequence (P11200 whole entry): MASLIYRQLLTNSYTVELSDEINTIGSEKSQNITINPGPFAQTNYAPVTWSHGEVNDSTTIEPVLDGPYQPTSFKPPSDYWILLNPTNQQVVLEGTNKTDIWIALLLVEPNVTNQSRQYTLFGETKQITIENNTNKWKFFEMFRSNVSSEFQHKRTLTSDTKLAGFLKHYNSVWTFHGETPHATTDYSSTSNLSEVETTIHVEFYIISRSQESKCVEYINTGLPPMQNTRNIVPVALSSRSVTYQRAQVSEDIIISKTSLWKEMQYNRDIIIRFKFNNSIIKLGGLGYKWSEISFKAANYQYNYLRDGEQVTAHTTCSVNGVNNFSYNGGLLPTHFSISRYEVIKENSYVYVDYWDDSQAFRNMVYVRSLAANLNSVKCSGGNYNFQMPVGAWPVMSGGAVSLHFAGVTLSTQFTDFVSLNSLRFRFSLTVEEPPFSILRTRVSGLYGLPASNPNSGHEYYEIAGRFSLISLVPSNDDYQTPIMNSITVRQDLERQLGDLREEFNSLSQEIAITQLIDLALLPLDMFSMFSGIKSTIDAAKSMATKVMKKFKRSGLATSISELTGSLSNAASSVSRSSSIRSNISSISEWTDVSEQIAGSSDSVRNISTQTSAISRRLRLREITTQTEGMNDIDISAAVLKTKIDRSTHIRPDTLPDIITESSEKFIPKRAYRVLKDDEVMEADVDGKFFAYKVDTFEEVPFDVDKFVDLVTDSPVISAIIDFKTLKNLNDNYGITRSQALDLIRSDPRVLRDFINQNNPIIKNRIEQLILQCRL

[14] = molecular target: T6, VP4 of rotavirus strain NCDV (G6P[1]) (bovine rotavirus); assay: immunostaining, RV-infected MA104 cells
T6 construct: whole, on cells
T6 sequence (P17465 whole entry): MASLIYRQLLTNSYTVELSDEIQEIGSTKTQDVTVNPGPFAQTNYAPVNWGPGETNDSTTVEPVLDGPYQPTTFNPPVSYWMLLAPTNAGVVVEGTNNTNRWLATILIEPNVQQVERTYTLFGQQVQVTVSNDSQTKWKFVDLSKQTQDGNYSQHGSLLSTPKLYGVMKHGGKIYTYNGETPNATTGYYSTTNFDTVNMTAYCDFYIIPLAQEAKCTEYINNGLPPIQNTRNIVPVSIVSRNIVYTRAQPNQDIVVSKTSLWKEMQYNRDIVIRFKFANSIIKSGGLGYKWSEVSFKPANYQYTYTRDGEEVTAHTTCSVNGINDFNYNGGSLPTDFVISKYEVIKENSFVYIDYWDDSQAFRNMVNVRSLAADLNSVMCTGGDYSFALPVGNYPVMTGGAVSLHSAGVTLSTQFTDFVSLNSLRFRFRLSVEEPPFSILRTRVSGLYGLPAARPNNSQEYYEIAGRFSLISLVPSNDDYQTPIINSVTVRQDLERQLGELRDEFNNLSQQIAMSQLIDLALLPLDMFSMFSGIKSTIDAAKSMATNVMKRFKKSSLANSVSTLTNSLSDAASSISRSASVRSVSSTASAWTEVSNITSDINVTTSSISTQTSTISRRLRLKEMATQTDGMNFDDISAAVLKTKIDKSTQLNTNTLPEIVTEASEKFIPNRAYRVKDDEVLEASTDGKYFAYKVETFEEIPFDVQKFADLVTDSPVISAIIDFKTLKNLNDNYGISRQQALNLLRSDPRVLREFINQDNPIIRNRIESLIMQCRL

[15] = molecular target: T7, VP4 of rotavirus strain OSU (G5P[7]) (porcine rotavirus); assay: immunostaining, RV-infected MA104 cells
T7 construct: whole, on cells; also called OSU G5[7]
T7 sequence (P11114 whole entry): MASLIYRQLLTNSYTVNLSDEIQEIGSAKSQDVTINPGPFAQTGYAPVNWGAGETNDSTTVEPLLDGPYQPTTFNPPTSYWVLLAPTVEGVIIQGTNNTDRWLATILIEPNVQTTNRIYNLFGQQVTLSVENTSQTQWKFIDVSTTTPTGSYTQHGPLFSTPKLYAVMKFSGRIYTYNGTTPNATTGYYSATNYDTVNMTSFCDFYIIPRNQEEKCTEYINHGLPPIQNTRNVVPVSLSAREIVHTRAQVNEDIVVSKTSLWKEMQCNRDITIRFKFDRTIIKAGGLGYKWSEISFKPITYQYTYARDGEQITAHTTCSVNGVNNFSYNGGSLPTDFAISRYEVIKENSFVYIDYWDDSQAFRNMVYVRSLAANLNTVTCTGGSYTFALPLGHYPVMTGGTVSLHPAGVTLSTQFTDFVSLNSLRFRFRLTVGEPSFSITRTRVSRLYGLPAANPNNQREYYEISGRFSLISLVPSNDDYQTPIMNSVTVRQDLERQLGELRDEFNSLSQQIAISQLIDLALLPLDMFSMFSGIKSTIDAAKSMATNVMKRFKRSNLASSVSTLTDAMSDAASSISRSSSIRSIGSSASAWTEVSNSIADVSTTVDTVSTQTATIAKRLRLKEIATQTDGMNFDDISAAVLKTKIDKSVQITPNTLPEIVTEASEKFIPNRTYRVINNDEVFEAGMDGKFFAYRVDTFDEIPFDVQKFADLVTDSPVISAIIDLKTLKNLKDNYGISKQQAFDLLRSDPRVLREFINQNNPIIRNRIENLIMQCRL

[16] = molecular target: T1, CDC-9 triple layered particles (TLPs), …; assay: cell-based or functional assay
[17] = molecular target: T4, VP4 of rotavirus strain DS1 (G2P[4]); assay: cell-based or functional assay
[18] = molecular target: VP7 of rotavirus strain DS1 (G2P[4]) (human rotavirus); assay: cell-based or functional assay
[19] = molecular target: T8, VP7 of rotavirus strain RRV (G3P[3]) (simian rotavirus, UniProt P12476 51-326); assay: cell-based or functional assay
T8 sequence (P12476 51-326): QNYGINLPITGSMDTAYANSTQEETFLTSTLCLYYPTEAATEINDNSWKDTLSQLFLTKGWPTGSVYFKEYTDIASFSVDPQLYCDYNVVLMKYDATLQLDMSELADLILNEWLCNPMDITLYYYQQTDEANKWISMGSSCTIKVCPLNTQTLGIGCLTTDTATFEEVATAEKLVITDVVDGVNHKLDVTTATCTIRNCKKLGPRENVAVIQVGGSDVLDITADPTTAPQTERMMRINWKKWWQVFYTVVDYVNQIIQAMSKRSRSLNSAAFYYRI

[20] = molecular target: VP7 of rotavirus strain OSU (G5P[7]) (porcine rotavirus); assay: cell-based or functional assay
[21] = molecular target: T9, VP7 of rotavirus strain DS1 (G2P[4]) (human rotavirus); assay: immunostaining, RV-infected MA104 cells
T9 construct: whole, on cells
T9 sequence (P11850 51-326): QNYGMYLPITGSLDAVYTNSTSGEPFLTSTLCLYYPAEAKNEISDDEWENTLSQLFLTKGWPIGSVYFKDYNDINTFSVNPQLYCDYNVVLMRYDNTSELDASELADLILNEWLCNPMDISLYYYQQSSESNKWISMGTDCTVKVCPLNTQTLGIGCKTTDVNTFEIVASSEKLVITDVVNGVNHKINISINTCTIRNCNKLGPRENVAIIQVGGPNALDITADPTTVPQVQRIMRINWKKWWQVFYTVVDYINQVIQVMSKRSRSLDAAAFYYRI

[22] = molecular target: T10, VP7 of rotavirus strain ST3 (G4P[6]) (human rotavirus); assay: immunostaining, RV-infected MA104 cells
T10 construct: whole, on cells
T10 sequence (P10501 51-326): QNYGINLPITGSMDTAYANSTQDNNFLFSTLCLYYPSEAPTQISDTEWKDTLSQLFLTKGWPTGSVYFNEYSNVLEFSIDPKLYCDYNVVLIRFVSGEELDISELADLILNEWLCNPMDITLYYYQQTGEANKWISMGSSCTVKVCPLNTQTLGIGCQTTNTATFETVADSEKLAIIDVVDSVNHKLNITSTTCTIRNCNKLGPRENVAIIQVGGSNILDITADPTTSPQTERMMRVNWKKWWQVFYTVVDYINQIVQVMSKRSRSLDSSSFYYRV

[23] = molecular target: T8, VP7 of rotavirus strain RRV (G3P[3]); assay: immunostaining, RV-infected MA104 cells
[24] = molecular target: T11, VP7 of rotavirus strain OSU (G5P[7]) (porcine rotavirus); assay: immunostaining, RV-infected MA104 cells
T11 construct: whole, on cells; also called OSU G5[7]
T11 sequence (P08406 51-326): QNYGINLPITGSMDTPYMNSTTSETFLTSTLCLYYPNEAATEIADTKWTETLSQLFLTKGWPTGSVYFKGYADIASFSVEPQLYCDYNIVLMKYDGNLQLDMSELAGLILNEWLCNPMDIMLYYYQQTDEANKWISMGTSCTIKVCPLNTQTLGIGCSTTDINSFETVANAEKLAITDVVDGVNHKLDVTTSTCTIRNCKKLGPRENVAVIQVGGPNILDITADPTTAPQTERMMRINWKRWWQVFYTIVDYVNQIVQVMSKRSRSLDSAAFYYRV

B1: mAb #46 (antibody, V domains shown)
VH: QVQLQESGPGLVKPSETLSLTCTVSGGSINSYYWSWIRQSPGKGLEWIGYVFYSGITKYNPSLQSRVTISLDMGKNQFSLKLTSVNAADAAVYYCARNFPSYTPDWFFDLWGRGTLVTVSS
VL: EIVLTQSPGTLSLSPGERATLSCRASQSVSSDNLAWYQQKPGQPPRLLIYGASHRATGIPDRFSGSGSGTDFTLTISRLEPEDFAVYHCQQYGSSPLTFGGGTKVEIK
notes: also called mAb ID: 46; Mab No. 46
- Minimum concentration for TLP binding [1]: 0.5 ng/mL
- in vitro neutralization [2]: > 625 ng/mL
- in vitro neutralization [3]: > 625 ng/mL
- minimum neutralizing concentration [4]: 2.4 ng/mL
- Endpoint immunostaining concentration [5]: 0.5 ng/mL

B2: mAb #41 (antibody, V domains shown)
VH: EVQLVESGGGPVQPGGSLKLSCAASGFTFSNYEMYWVRQAPGKGLEWVSYISTSPAITYYADSVRGRFTISRDNAKSSLYLHMNSLRAEDTAVYYCATISHQQFSSGWNAWFDPWGQGTLVTVSS
VL: NFMLTQPHSVSESPGKTVTISCTGSSGSIASNYVQWYRQRPGSAPTTVIYENYQRPSGVPARFSGSIDRSSNSASLTISGLQTDDEADYYCQSYDNNNLWVFGGGTKLTVL
notes: also called mAb ID: 41; Mab No. 41
- minimum neutralizing concentration [6]: 0.6 ng/mL
- Endpoint immunostaining concentration [7]: 0.5 ng/mL

B3: mAb #2 (antibody, V domains shown)
VH: EVQLVESGGGLVKPGGSLRLSCKASGLIVSDAWMSWVRQSPGKGLEWVGRIKSEINGGTIDYAAPVKGRFTILRDDSKNTLYLQINSLKTEDTAVYYCTTRLLFSPWGQGTLVTVSS
VL: QPVLTQPPSSSASPGESARLTCTLPSDINVAYYNIYWYQQKPGSPPRYLLYYYSDSDQGQGSGVPSRFSGSKDASANTGILFISGLQSEDEADYYCMIWTSNASMFGGGTKLTVL
notes: also called mAb ID: 2; Mab No. 2
- Endpoint immunostaining concentration [7]: 5 ng/mL

B4: mAb #33 (antibody, V domains shown)
VH: DVQLVESGGGLVQPGGPSRLSCSASRFTFSNYAMYWVRQAPGKGLEYVSSISSDGGSTYYAESVKGRFTISRDNSKNTLYLQMRSLRAEDAAVYYCVTDVLRLPYSTGWSPGDFIYWGQGTLVTVSS
VL: DIQMTQSPSILYASVGDRVTITCRASQSVSSWLAWYQQKPGKVPKLLIYQASTLENGVPSRFSGSGSGTEFILTISSLQPDDFATYYCQHYNVLWTFGQGTKVEI
notes: also called mAb ID: 33; Mab No. 33
- minimum neutralizing concentration [6]: 2.4 ng/mL
- Endpoint immunostaining concentration [7]: 50 ng/mL

B5: mAb #49 (antibody, V domains shown)
VH: DVQLVESGGGLVQPGGSVRLSCSASRFTFSNYAMYWVRQAPGKGLEYVSSISSDGGSTYYAESVKGRFTISRDNSKNTLYLQMRSLRAEDAAVYYCVTDVLRLPYSTGWSPGDFIYWGQGTLVTVSS
VL: DIQMTQSPSILYASVGDRVTITCRASQSVSSWLAWYQQKPGKVPKLLIYQASTLENGVPSRFSGSGSGTEFILTISSLQPDDFATYYCQHYNVLWTFGQGTKVEIK
notes: also called mAb ID: 49; Mab No. 49
- Minimum concentration for TLP binding [1]: 5 ng/mL
- in vitro neutralization [8]: > 625 ng/mL
- in vitro neutralization [9]: > 625 ng/mL
- minimum neutralizing concentration [6]: 39.1 ng/mL
- minimum neutralizing concentration [10]: 39.1 ng/mL
- minimum neutralizing concentration [11]: 156 ng/mL
- Endpoint immunostaining concentration [7]: 5 ng/mL
- Endpoint immunostaining concentration [12]: 0.5 ng/mL
- Endpoint immunostaining concentration [13]: 5 ng/mL
- Endpoint immunostaining concentration [14]: 5.6 ng/mL
- Endpoint immunostaining concentration [15]: 5.6 ng/mL

B6: mAb #27 (antibody, V domains shown)
VH: QVQLQESGPGLVKPLETLSLTCAVSGVSINSYYWSWIRQPPGKGLEWIGNVFYSGSTKYNPSLESRVAMTVDSSRNQVSLRLNSVTAADTAVYYCAREGVGYGYNNYGGNWFDPWGQGTLVTVSS
VL: EVVLTQSPGTLSLSPGERVTLSCRASQSVTSSNLAWYQQKPGQTPRLLISGASSRATGIPDRFSGSGSGTDFTLTISRLEPEDFAVYYCQQYANSPVTFGGGTKLEIK
notes: also called mAb ID: 27; Mab No. 27
- minimum neutralizing concentration [4]: 0.3 ng/mL
- Endpoint immunostaining concentration [5]: 0.5 ng/mL

B7: mAb #47 (antibody, V domains shown)
VH: QVQLQESGPGLVKPSETLSLTCSVSGGSISVYYWNWIRQSPGKGLEWIASMYYTGITNYNPSLKSRVTMSVDMSKNQFSLKLSSVTAADTAVYYCARTMGIDQNNRGWPPAGYYFGMDVWGQGTTVTVSS
VL: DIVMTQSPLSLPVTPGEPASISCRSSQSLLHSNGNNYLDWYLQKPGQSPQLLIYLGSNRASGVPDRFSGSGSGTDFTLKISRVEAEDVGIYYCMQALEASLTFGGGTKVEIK
notes: also called mAb ID: 47; Mab No. 47
- Minimum concentration for TLP binding [1]: 0.5 ng/mL
- in vitro neutralization [8]: > 625 ng/mL
- in vitro neutralization [9]: > 625 ng/mL
- minimum neutralizing concentration [16]: 4.9 ng/mL
- minimum neutralizing concentration [17]: 4.9 ng/mL
- Endpoint immunostaining concentration [7]: 0.5 ng/mL
- Endpoint immunostaining concentration [12]: 0.5 ng/mL

B8: mAb #30 (antibody, V domains shown)
VH: QVQLVQSGAEVKKPGASVTVSCKASGYAFTSFYLHWVRQAPGQGLEWMGIINPSDGRTRYAQKFQGRVTMTSDTSTNTVYVELSSLRSEDTAIYYCARGAIGNYNAREALDVWGRGTTVTVSS
VL: EIVMTQSPATLSVSPGESATLSCRASQSINSNLAWYQQKPGQAPRLLIFSASSRATGIPARFSGSGSGTEFTLTISSLQSDDFAVYYCQQYNIWPPEHTFGQGTRLQIK
notes: also called mAb ID: 30; Mab No. 30
- minimum neutralizing concentration [6]: 0.6 ng/mL
- Endpoint immunostaining concentration [7]: 5 ng/mL

B9: mAb #57 (antibody, V domains shown)
VH: QVQLVESGGGVVQSGRSLRLSCAASGFTFRSYAMHWVRQAPGKGLEWVADLSLDGSHKYADSVRGRFTISSDSSKNTVYLQMNSLRTEDTAIYYCARAAGIMVAGTFLTEFYFDYWGQGTLVTVSS
VL: QSVLTQPPSVSGAPGQRVTISCTGSSSNIGAGYDVHWYQQLPGTAPKLLIYGNIKRPSGVPDRFSGSKSGTSASLAITGLQTEDEADYYCQSYDSSLSAYYVFGTGTRVTVL
notes: also called mAb ID: 57; Mab No. 57
- Minimum concentration for TLP binding [1]: 0.5 ng/mL
- in vitro neutralization [2]: > 625 ng/mL
- in vitro neutralization [3]: > 625 ng/mL
- minimum neutralizing concentration [18]: 4.9 ng/mL
- minimum neutralizing concentration [19]: 1.2 ng/mL
- minimum neutralizing concentration [20]: 19.5 ng/mL
- Endpoint immunostaining concentration [21]: 0.5 ng/mL
- Endpoint immunostaining concentration [22]: 500 ng/mL
- Endpoint immunostaining concentration [23]: 5 ng/mL
- Endpoint immunostaining concentration [24]: 50 ng/mL
